Values quoted from earlier work, collected in patent US20100120660A1, “HIGHLY CONCENTRATED INSULIN SOLUTIONS AND COMPOSITIONS” (priority 2007, published 2010).

porcine insulin
stability of insulin in highly concentrated solution (acidic pH): not stable due to deamidation and polymerisation | concentration of stable insulin solutions (comprising zinc, neutral pH): up to 6 mM
